Common to all, as to experiment: cell-based or functional assay
For one test, the target named is T1, mouse Gremlin (mouse, UniProt O70326 25-184).
T1 sequence (looked up): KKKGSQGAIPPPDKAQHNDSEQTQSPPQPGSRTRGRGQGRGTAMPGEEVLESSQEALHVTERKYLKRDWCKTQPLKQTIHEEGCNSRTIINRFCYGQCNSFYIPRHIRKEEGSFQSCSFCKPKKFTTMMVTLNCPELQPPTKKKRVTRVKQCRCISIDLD

Test [1] has as its target T2, recombinant human Gremlin-1 (human, UniProt O60565 25-184).
T2 sequence: T1 sequence (looked up) with P27Q, T33N

In a further test the target is T3, BMP4/7 heterodimer (human, UniProt P12644 293-408; P18075 293-431).
T3 sequence (looked up) 1: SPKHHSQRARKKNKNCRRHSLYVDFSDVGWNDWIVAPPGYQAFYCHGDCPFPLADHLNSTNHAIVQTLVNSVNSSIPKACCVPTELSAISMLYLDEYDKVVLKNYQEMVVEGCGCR
T3 sequence (looked up) 2: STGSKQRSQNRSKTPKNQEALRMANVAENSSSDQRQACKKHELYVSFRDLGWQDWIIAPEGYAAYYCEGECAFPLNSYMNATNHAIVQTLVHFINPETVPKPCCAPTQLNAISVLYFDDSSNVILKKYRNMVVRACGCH

Numbering of substitutions follows the chain as printed.

B1: Ab7326 (antibody, V domains shown)
VH: QVQLVESGAEVKKPGATVKISCKVSGYTFTDYYMHWVQQAPGKGLEWMGLVDPEDGETIYAEKFQGRVTITADTSTDTAYMELSSLRSEDTAVYYCATDARGSGSYYPNHFDYWGQGTLVTVSS
VL: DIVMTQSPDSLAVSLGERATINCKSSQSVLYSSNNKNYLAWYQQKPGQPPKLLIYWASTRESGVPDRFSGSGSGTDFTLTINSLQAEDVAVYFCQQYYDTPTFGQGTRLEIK
Take B1: the “IC50, restoration of BMP signalling blocked by mouse Gremlin, HEK-ID1 reporter gene assay” value with mouse Gremlin is 0.2 nM. Moreover, in test [1], the “IC50, restoration of BMP signalling blocked by human Gremlin, HEK-ID1 reporter gene assay” value was 1.3 nM.

B2: truncated human Gremlin-1 with N-terminal 6His-TEV tag (ligand)
chain: MGSSHHHHHHSSGENLYFQGSAMPGEEVLESSQEALHVTERKYLKRDWCKTQPLKQTIHEEGCNSRTIINRFCYGQCNSFYIPRHIRKEEGSFQSCSFCKPKKFTTMMVTLNCPELQPPTKKKRVTRVKQCRCISIDLD
With B2, the “IC50 (geometric mean, N=2), inhibition of BMP4/7 signalling, Hek-Id1 reporter gene assay” value in the test with BMP4/7 heterodimer came to 1.7 nM.

(Values after US20230174635A1 (UCB, published 2023).)
